From patent US20050260216A1 (published 2005)
Blank lines part the entries; values can stand above or below the molecule they belong to.

Experiments:
[1] = biological target: human type-2 IL-4 receptor (on A549 cells) (human) (UniProt P24394); assay: cell-based or functional assay
[2] = biological target: T1, human type-2 IL-4 receptor (on A549 cells) (human, UniProt P24394 26-825; P78552 22-427); assay: cell-based or functional assay
T1 sequence (looked up) 1: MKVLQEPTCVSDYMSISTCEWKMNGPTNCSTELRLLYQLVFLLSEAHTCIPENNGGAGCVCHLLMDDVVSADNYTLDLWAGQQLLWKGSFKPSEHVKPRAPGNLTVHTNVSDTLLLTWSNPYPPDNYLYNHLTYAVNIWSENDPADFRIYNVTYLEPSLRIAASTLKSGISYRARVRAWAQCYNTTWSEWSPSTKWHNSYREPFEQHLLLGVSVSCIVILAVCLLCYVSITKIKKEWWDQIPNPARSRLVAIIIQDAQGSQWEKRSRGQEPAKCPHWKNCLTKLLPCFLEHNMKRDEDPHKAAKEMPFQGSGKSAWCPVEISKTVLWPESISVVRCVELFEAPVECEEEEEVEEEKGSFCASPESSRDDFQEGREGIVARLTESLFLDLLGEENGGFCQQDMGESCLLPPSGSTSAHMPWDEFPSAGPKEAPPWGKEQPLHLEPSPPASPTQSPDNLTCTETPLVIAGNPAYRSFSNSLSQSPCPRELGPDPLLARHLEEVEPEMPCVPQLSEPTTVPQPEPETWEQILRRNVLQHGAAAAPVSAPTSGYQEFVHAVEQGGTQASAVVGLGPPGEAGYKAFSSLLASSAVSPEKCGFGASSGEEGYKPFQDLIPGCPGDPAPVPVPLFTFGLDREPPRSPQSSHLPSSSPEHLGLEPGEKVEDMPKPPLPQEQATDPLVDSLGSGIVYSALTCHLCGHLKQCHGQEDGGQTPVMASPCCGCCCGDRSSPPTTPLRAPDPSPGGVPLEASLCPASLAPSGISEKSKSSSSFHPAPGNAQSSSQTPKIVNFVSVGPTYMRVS
T1 sequence (looked up) 2: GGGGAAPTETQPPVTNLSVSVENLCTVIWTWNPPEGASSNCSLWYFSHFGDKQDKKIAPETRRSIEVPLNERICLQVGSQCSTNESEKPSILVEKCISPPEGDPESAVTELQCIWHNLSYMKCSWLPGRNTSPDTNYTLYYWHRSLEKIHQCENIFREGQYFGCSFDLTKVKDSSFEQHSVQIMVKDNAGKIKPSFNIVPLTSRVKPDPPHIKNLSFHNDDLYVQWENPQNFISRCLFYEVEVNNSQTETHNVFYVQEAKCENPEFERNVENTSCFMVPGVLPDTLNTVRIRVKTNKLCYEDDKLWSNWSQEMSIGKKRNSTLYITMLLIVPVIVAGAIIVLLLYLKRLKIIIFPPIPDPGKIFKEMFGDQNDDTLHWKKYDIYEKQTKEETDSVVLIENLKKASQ

phosphorylation of STAT6 in A549 cells (Western blot); lowest active concentration tested [1]: 10 ng/mL
Molecule: recombinant mouse IL-13 (catalogue number 413-ML-025, R&D Systems) (from UniProt P20109 26-131) (ligand)

bioactivity relative to mIL-13 (STAT6 phosphorylation in A549 cells) [2]: ~5 fold less than mIL-13
B1: chimaeric IL-13 (free cIL-13 generated from GST-cIL-13 by thrombin cleavage) (ligand)
chain: GPVPRSVSLPLTLRELIEELVNITQDQTPLCNGSMVWSVDLAAGGYCAALESLTNISNCNAIEKTQRMLGGLCNRKAPTTVSSLPDTKIEVAQFVKDLLSYTKQLFRHGPF
